In article PMC10397247:

T1: 4H754-bA
T1 chain: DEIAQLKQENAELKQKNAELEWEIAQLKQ

T2: 4H967-bA
T2 chain: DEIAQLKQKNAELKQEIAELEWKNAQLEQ

T3: 4H968-bA
T3 chain: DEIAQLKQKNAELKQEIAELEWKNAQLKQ

T4: 4H780-bA
T4 chain: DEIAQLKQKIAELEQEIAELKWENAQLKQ

T5: 4H953-bA
T5 chain: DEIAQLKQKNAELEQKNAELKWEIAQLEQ

T6: 4H908-bN
T6 chain: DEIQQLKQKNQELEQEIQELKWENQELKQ

T7: P11mS
T7 chain: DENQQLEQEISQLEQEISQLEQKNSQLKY

T8: 4H908-bA
T8 chain: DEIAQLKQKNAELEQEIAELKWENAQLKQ

T9: 4H797-bA
T9 chain: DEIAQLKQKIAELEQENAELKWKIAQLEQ

T10: 4H918-bA
T10 chain: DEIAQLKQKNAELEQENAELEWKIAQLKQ

T11: 4H855-bA
T11 chain: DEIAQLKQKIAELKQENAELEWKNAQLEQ

T12: 4H883-bA
T12 chain: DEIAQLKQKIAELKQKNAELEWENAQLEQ

T13: 4H2745-bN
T13 chain: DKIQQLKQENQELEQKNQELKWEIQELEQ

T14: 4H363-bN
T14 chain: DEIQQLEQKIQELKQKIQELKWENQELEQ

T15: 4H470-bN
T15 chain: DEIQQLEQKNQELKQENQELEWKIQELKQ

T16: 4H2568-bN
T16 chain: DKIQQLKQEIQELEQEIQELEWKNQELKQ

T17: 4H3907-bN
T17 chain: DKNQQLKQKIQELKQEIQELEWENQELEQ

T18: 4H3961-bN
T18 chain: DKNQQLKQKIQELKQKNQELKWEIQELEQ

T19: 4H2619-bN
T19 chain: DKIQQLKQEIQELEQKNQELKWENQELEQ

T20: 4H344-bN
T20 chain: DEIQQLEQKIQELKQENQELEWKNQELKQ


Legend:
Experiment in all cases: two-hybrid library CCNG1;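 further: natural log of median RNA to DNA barcode read ratio; higher means stronger binding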
4H754-bA = target: T1, 4H754-bA
4H967-bA = target: T2, 4H967-bA
4H968-bA = target: T3, 4H968-bA
4H780-bA = target: T4, 4H780-bA
4H953-bA = target: T5, 4H953-bA
4H908-bN = target: T6, 4H908-bN
P11mS = target: T7, P11mS
4H908-bA = target: T8, 4H908-bA
4H797-bA = target: T9, 4H797-bA
4H918-bA = target: T10, 4H918-bA
4H855-bA = target: T11, 4H855-bA
4H883-bA = target: T12, 4H883-bA
4H2745-bN = target: T13, 4H2745-bN
4H363-bN = target: T14, 4H363-bN
4H470-bN = target: T15, 4H470-bN
4H2568-bN = target: T16, 4H2568-bN
4H3907-bN = target: T17, 4H3907-bN
4H3961-bN = target: T18, 4H3961-bN
4H2619-bN = target: T19, 4H2619-bN
4H344-bN = target: T20, 4H344-bN

Row | Binder | interaction score (4H754-bA) | interaction score (4H967-bA) | interaction score (4H968-bA) | interaction score (4H780-bA) | interaction score (4H953-bA) | interaction score (4H908-bN) | interaction score (P11mS) | interaction score (4H908-bA) | interaction score (4H797-bA) | interaction score (4H918-bA) | interaction score (4H855-bA) | interaction score (4H883-bA) | interaction score (4H2745-bN) | interaction score (4H363-bN) | interaction score (4H470-bN) | interaction score (4H2568-bN) | interaction score (4H3907-bN) | interaction score (4H3961-bN) | interaction score (4H2619-bN) | interaction score (4H344-bN)
1 | DEIAQLKQENAELKQKNAELEWEIAQLKQ [4H754-bA] | 1.57 | -0.575 | -0.368 | -1.48 | 0.496 | -0.94 | -1.53 | -0.879 | -0.233 | -0.579 | -0.914 | -0.374 |  |  |  |  |  |  |  | 
2 | DKIQQLKQEIQELEQEIQELEWKNQELKQ [4H2568-bN] |  |  |  |  |  |  |  |  |  |  |  |  | -1.2 | 0.932 | 0.618 | 0.798 | 0.402 | 1.52 | -0.118 | -0.22
